The record followed here is PMC6137974, “FZP determines grain size and sterile lemma fate in rice”.

For data set [1], the target named is T1, FZP (FRIZZY PANICLE) (Oryza sativa, UniProt Q8H3Q1 1-318). In words: EMSA; 0.5, 1 and 1.5 ug protein; EMSA, 15 ul, 1 ug biotin probe, 0.5-1.5 ug protein, LightShift Chemiluminescent EMSA Kit (Thermo) binding buffer; salt, pH and temperature not stated. To be noted: protein: recombinant; tags: His-SUMO (pET-SUMO); label: 5' biotin; blunt.
Data set [2] deals with T1, FZP (FRIZZY PANICLE). Description: EMSA; 1.5 ug protein; EMSA, 15 ul, 1 ug biotin probe, 0.5-1.5 ug protein, LightShift Chemiluminescent EMSA Kit (Thermo) binding buffer; salt, pH and temperature not stated. To be noted: protein: recombinant; tags: His-SUMO (pET-SUMO); label: 5' biotin; blunt. On the technique in general: A gel shift assay detects complexes by their altered migration in electrophoresis.

T1 sequence (Q8H3Q1 whole entry): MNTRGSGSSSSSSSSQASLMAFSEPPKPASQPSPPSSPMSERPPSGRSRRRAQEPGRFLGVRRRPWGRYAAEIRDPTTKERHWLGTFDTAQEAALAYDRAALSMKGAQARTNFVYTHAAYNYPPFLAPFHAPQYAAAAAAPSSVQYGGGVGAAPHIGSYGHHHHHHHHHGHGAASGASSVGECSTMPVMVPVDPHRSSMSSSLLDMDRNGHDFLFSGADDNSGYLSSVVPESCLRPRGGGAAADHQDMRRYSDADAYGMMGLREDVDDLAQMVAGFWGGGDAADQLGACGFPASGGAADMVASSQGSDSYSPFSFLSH

B1: GCC-box probe (3 repeats) (dsDNA)
DNA 1: CATAAGAGCCGCCACTCATAAGAGCCGCCACTCATAAGAGCCGCCACT
DNA 2: AGTGGCGGCTCTTATGAGTGGCGGCTCTTATGAGTGGCGGCTCTTATG
For the molecule B1, the binding result in the data set with FZP (FRIZZY PANICLE) [1] was “binds”.

B2: DRE probe (3 repeats) (dsDNA)
DNA 1: ATACTACCGACATGAGATACTACCGACATGAGATACTACCGACATGAG
DNA 2: CTCATGTCGGTAGTATCTCATGTCGGTAGTATCTCATGTCGGTAGTAT
As to B2, the binding result in the data set with FZP (FRIZZY PANICLE) [1] is “binds”.

B3: mDRE probe (3 repeats) (dsDNA)
DNA 1: ATACGTCTTTGACGAGATACGTCTTTGACGAGATACGTCTTTGACGAG
DNA 2: CTCGTCAAAGACGTATCTCGTCAAAGACGTATCTCGTCAAAGACGTAT
B3: in the data set with FZP (FRIZZY PANICLE) [2], the binding result is listed as “no binding”.

B4: mGCC-box probe (3 repeats) (dsDNA)
DNA 1: CATAAGATACTTGACTCATAAGATACTTGACTCATAAGATACTTGACT
DNA 2: AGTCAAGTATCTTATGAGTCAAGTATCTTATGAGTCAAGTATCTTATG
Consider B4, for which, in the data set with FZP (FRIZZY PANICLE) [2], the binding result is reported as “no binding”.
